In series [1] the target is T1, gt1b NS3 (Hepatitis C virus genotype 1b strain N, UniProt Q9WPH5 1028-1658). As to the kind of experiment: filter binding; 3 mM Mg2+; (stopped-flow kon 9.9 uM-1 s-1, Fig 2B); 25 mM MOPS-NH4+ pH 6.5, 3 mM MgCl2, 30 mM NaCl, 1% glycerol, 2 mM DTT, 0.1% Triton X-100; filter binding 37 C, 0.5 nM RNA, Hill fit; stopped flow 25 C. The following applies: protein: recombinant; tags: His6-SUMO removed (native N terminus); 5' Cy3 top strand via C3 amino linker (stopped flow); 3' overhang 12 nt on strand 1.

Series [2] has as its target T2, JFH-1 NS3 (Hepatitis C virus genotype 2a strain …, UniProt Q99IB8 1031-1661). Put plainly: filter binding; 3 mM Mg2+; (stopped-flow kon 69 uM-1 s-1, Fig 2B); 25 mM MOPS-NH4+ pH 6.5, 3 mM MgCl2, 30 mM NaCl, 1% glycerol, 2 mM DTT, 0.1% Triton X-100; filter binding 37 C, 0.5 nM RNA, Hill fit; stopped flow 25 C. The following applies: protein: recombinant; tags: His6-SUMO removed (native N terminus); 5' Cy3 top strand via C3 amino linker (stopped flow); 3' overhang 12 nt on strand 1.

For series [3], the target named is T2, JFH-1 NS3. Put plainly: filter binding; 3 mM Mg2+; (stopped-flow kon 59 uM-1 s-1, Fig 2A); 25 mM MOPS-NH4+ pH 6.5, 3 mM MgCl2, 30 mM NaCl, 1% glycerol, 2 mM DTT, 0.1% Triton X-100; filter binding 37 C, 0.5 nM RNA, Hill fit; stopped flow 25 C. The settings on record: protein: recombinant; tags: His6-SUMO removed (native N terminus); 5' Cy3 top strand via C3 amino linker (stopped flow); 3' overhang 18 nt on strand 1.

Series [4] addresses T1, gt1b NS3. As to the kind of experiment: filter binding; 3 mM Mg2+; (stopped-flow kon 13 uM-1 s-1, Fig 2A); 25 mM MOPS-NH4+ pH 6.5, 3 mM MgCl2, 30 mM NaCl, 1% glycerol, 2 mM DTT, 0.1% Triton X-100; filter binding 37 C, 0.5 nM RNA, Hill fit; stopped flow 25 C. The settings on record: protein: recombinant; tags: His6-SUMO removed (native N terminus); 5' Cy3 top strand via C3 amino linker (stopped flow); 3' overhang 18 nt on strand 1.

Series [5] concerns the target T1, gt1b NS3. As to the kind of experiment: filter binding; 3 mM Mg2+; legend names NS3-4A; 25 mM MOPS-NH4+ pH 6.5, 3 mM MgCl2, 30 mM NaCl, 1% glycerol, 2 mM DTT, 0.1% Triton X-100; filter binding 37 C, 0.5 nM RNA, Hill fit; stopped flow 25 C. The following applies: protein: recombinant; tags: His6-SUMO removed (native N terminus); label: 5'-32P.
Series [6] deals with T2, JFH-1 NS3. The series is described as above. The following applies: protein: recombinant; tags: His6-SUMO removed (native N terminus); label: 5'-32P.
Series [7] concerns the target T1, gt1b NS3. Put plainly: filter binding; 3 mM Mg2+; (stopped-flow kon 3.5 uM-1 s-1, Fig 2C); 25 mM MOPS-NH4+ pH 6.5, 3 mM MgCl2, 30 mM NaCl, 1% glycerol, 2 mM DTT, 0.1% Triton X-100; filter binding 37 C, 0.5 nM RNA, Hill fit; stopped flow 25 C. The settings on record: protein: recombinant; tags: His6-SUMO removed (native N terminus); 5' Cy3 top strand via C3 amino linker (stopped flow); 3' overhang 6 nt on strand 1.

In series [8] the target is T2, JFH-1 NS3. As to the kind of experiment: filter binding; 3 mM Mg2+; (stopped-flow kon 15 uM-1 s-1, Fig 2C); 25 mM MOPS-NH4+ pH 6.5, 3 mM MgCl2, 30 mM NaCl, 1% glycerol, 2 mM DTT, 0.1% Triton X-100; filter binding 37 C, 0.5 nM RNA, Hill fit; stopped flow 25 C. The following applies: protein: recombinant; tags: His6-SUMO removed (native N terminus); 5' Cy3 top strand via C3 amino linker (stopped flow); 3' overhang 6 nt on strand 1.

B1: 12bp/12-OH (dsRNA)
RNA 1: CGGCAGCGAGGCAGAGGAGCAGCA
RNA 2: GCCUCGCUGCCG
The Kd is the equilibrium constant for the complex coming apart. Regarding B1, the results for the Kd with gt1b NS3 [1] and with JFH-1 NS3 [2] were 15.7 ± 0.61 nM and 7.69 ± 0.21 nM, respectively.

B2: 12bp/18-OH (dsRNA)
RNA 1: CGGCAGCGAGGCAGAGGAGCAGAGGGAGCA
RNA 2: GCCUCGCUGCCG
In the case of B2, the Kd with JFH-1 NS3 [3] amounted to 6.56 ± 0.23 nM; with gt1b NS3 [4], 7.25 ± 0.17 nM.

For the molecule CUGUGGCAUGUCCUAGCGUCGUAUCGAUCUGGUC (ssRNA) [ssT34], the results for the dissociation constant Kd in the series with gt1b NS3 [5] and in the series with JFH-1 NS3 [6] were 7.56 ± 0.33 nM and 8.36 ± 0.29 nM, respectively.

B3: 12bp/6-OH (dsRNA)
RNA 1: CGGCAGCGAGGCAGGACA
RNA 2: GCCUCGCUGCCG
On to B3, for which the dissociation constant (Kd) with gt1b NS3 [7] was 60.4 ± 4.38 nM; with JFH-1 NS3 [8], 14.9 ± 0.52 nM.

Source of the values: paper PMC5730761, “NS3 from Hepatitis C Virus Strain JFH-1 Is an Unusually Robust Helicase That Is Primed To Bind and Unwind Viral RNA”.
